Measured values taken from patent publication US20230374114A1 (Dana-Farber, published 2023).
Where a chain is given by its changes, count along the chain named.

B1: Ab 27 (scFv, V domains shown)
VH: QVQLVQSGTEVKKPGASVKVSCKASGYSFTGSHLHWVRQAPGQGLEWMGWINPDSGVINYAQKFQGRVTLTRDTSISTAYMELSGLRSDDTAVYYCARDKAIGYVWALDYWGQGTLVTVSS
VL: QSALTQPPSVSGSPGQSVTISCTGTSSDVGTYNRVSWYQQPPGKAPKLMIYEVSNRPSGVSNRFSGSKSGNTASLTISGLQAEDEADYYCSSYTRTFTYVFGTGTKVTVL
B2: Ab 20 (scFv, V domains shown)
VH: QVQLVQSGGGSVKPGGSLRLSCAASGYRLSDYYMHWVRQAPGKGLEWVANIKQDGSEKYYVDSVKGRFTISRDNAKNSLYLQMNSLRAEDTAVYYCARVRGWSRGYFDYWGQGTLVTVSS
VL: NFMLTQPHSVSESPGKTVTISCTGSSGSIASNYVQWYQQRPGSAPTTVIYEDNQRPSGVPDRFSGSIDSSSNSASLLISGLKTEDEADYYCQSYDSSNHWVFGGGTKLTVL
B3: RBD-R3-E1-G7 (Ab2-10) (scFv, V domains shown)
VH: EVQLVESGPGLVKPSETLSLTCTVSGGSISSYYWSWIRQPAGKGLEWIGRIYTSGSTNYNPSLKSRVTMSVDTSKNQFSLKLSSVTAADTAVYYCARDVGFGWFDRWGQGTLVTVSS
VL: B2 VL with G24R, A44S, L77T, K82T, Y94F, S97A, N98S, H99L
B4: S1-RBD-R3-T1-B12 Ab (Ab_31) (scFv, V domains shown)
VH: QVQLVQSGAEVKKPGSSVKVSCKASGGTFSSYTISWVRQAPGQGLEWMGGIIPILGTPNYAQKFQDRVAITADKSTSTAYMELSSLRSEDTAVYYCAVGSGWYSGFDYWGQGTLVTVSS
VL: B2 VL with N53S, L77T, Y94F, D95H, S96N, H99P, W100V, V101I
B5: S1-RBD-R3-T1-F5 (Ab2-7) (scFv, V domains shown)
VH: QVTLKESGPTRVKPTQTLTLTCTFSGFSLSTTGVGVGWIRQPPGKALEWLALIYWNDDKRYSPSLKSRLTITKDTSKNQVVLTMTNMDPVDTATYYCARISGSGYFYPFDIWGQGTTVTVSS
VL: B2 VL with G24R, A44S, L77T, T83A, N98S, H99L
B6: Ab 25 (scFv, V domains shown)
VH: QVQLVQSGGGLVQPGGSLRLSCAASGFTFSSYWMSWVRQAPGKGLEWVANIKQDGSEKYYVDSVKGRFTISRDNAKNSLYLQMNSLRAEDTAVYYCARGFYYYGAFDIWGQGTTVTVSS
VL: B2 VL with D68G, L77T
B7: Ab 28 (scFv, V domains shown)
VH: QVTLKESGPGLVNPSETLSLTCTVSGASISNSFWSWIRQSPGKGLEWIGYTSYSGNSIYNPSLKSRLTMSIDTSKNQLSLNLRSLTAADTAVYYCARREWIKGHFDYWGQGTLVTVSS
VL: B2 VL with S26G, L77T, H99P, W100V
B8: Ab_13 (scFv, V domains shown)
VH: B5 VH with T10K, R11L, T32S, N56D, T72A, N78Y, T117M, S122A
VL: B2 VL with G24R, L77T, H99L
B9: Ab_19 (scFv, V domains shown)
VH: EVQLVESGAEVKKPGESLKISCKGSGYSFTSYWIGWVRQMPGKGLEWMGIIYPGDSDTRYSPSFQGQVTISADKSISTAYLQWSSLKASDTAMYYCARRGDLDAFDIWGQGTMVTVSS
VL: QPGLTQPPAASGTPGQRVTVSCSGASANIGSNAVSWFKQFPETAPRLLISGNTHRPSGVPDRVSGSKSGTSASLTISGLQSDDEADYYCAAWDDSLNGYVFGSGTKVTVL
B10: Ab_16 (scFv, V domains shown)
VH: QVQLVQSGGGVVQPGRSLRLSCAASGFTFSNYGMHWVRQAPGKGLEWVALIWERGSKKDYADSVKGRFTVSRDNSKNTLYLQMNSLRPEDTAVYFCAREGISMTGAEYFQHWGQGTLVTVSS
VL: QSVLTQPPSVSGSPGQRVTMSCTGSSSNIGAGYDVHWYQQVPGAAPRLLIYGTNNRPSGVPDRFSGSKSGTSASLTITGLQAEDEADYYCQSYDNSLTDPYVFGTGTKVTVL
B11: RBD-R3-E1-B3 Ab (Ab_32) (scFv, V domains shown)
VH: QVQLVQSGAEVKKPGESLKISCKGSGYSFTSYWIGWVRQMPGKGLEWMGIIYPGDSDTRYSPSFQGQVTISADKSISTAYLQWSSLKASDTAMYYCARGWQWHDYWGQGTLVTVSS
VL: QTVVTQEPAVSVALGQTVRITCQGDSLRSYYASWYQQKPGQAPVLVVYDKDKRPSGIPDRFSGSTSGNTASLTITGAQAEDEADYYCNSRDRSDNHVVFGGGTKLTVL
B12: Ab_14 (scFv, V domains shown)
VH: QVQLQQSGPGLVKPSQTLSLTCAISGDSVSSNSAAWNWIRQSPARGLEWLGRTYYRSRWYNDYAISMKSRITINPDTSKNQFSLQLESVTPEDTAVYYCAREIRGFDYWGQGTLVTVSS
VL: QSVLTQPPSASGSPGQSVTISCTGTSSDVGAYNFVSWYQHHPGKAPKLIIYDFNKRPSGVPDRFSGSKSGNTASLTVSGLQADDEADYYCSSYAGSNNFDVVFGGGTKLTVL
B13: S1-RBD-R3-T1-D7 Ab (Ab_34) (scFv, V domains shown)
VH: QVQLVQSGVEVKKPGESLKISCKGSGYSFTSYWIGWVRQMPGKGLEWMGIIYPGDSDTRYSPSFQGQVTISADKSISTAYLQWSSLKASDTAMYYCARTTYSYGSFDYWGQGTLVTVSS
VL: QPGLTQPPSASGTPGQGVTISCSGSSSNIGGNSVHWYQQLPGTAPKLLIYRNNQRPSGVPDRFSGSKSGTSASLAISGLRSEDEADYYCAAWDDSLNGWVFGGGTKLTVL
B14: Ab 26 (scFv, V domains shown)
VH: QVQLVQSGGGLVQPGRSLRLSCAASGFTFDDYAMHWVRQVPGKGLEWVSGIDWNSGVIGYADSVKGRFTISRDNAKNSLYLQMNSLRAEDTALYYCAKDAYSYGFLGAFDIWGQGTMVTVSS
VL: LPVLTQPPSVSVAPGQTASITCGGDNIRTKGVHWYQQKPGQAPLLVIYYASDRPSGIPERFSGSSSGNTATLTISRVEAGDEADYYCQVWDSSSDLVVFGGGTTLTVL
B15: S1-RBD-R3-T1-E2 (Ab7) (scFv, V domains shown)
VH: B14 VH
VL: QPGLTQPPSVSVAPGQTARISCGGNNIGSKSVHWYQQKPGRAPVLVVYEDRGRPSGIPERFSGSNSGNTATLTVSRVEAGDEADYYCQVWDGDSDHYVFATGTKVSIL
B16: RBD-R3-E1-A5 Ab (Ab_30) (scFv, V domains shown)
VH: QVQLVQSGGGVVQPGKSLRLSCTASGFTFSDFPIHWVRQAPGKGLEWVGVISYDGNIKYYGDSVKGRFTISRDNAKNSLYLQMNSLRVEDTAVYYCARGGSSFDIWGQGTTVTVSS
VL: SYELTQPPSVSEAPRQRVTISCSGSTSNIGNNAVSWYQHLPGKAPKLLIYYNERLPSGVSDRFSGSKSGTSASLAISGLRSEDEADYYCAAWDDSLSGHVVFGGGTKLTVL
B17: Ab_17 (scFv, V domains shown)
VH: QVQLVQSGGGVVQPGRSLRLSCAASGFTFDDYAMHWVRQVPGKGLEWVSGIDWNSGVIGYADSVKGRFTISRDNVKNSLYLQMNSLRTEDSALYYCAKDIGPGGSGSYYAFDIWGQGTTVTVSS
VL: QSALTQPASVSGSPGQSITISCTGTSSDVGGSKYVSWYQQHPGKAPKVMIYDVTKRPSGVPDRFSGSKSGNTASLTISGLQAEDEADYYCAAWDDSLNGVVFGGGTKLTVL
B18: Ab_18 (scFv, V domains shown)
VH: EVQLVQSGGGVVQPGRSLRVSCAASGFSFSRYGMHWVRQAPGKGLEWVAFIRHDGSKKYYADSVEGRFTISRDNSRNTVSLEMNSLRGEDTAVYYCAKDGRLEAALDDWGQGTLVTVSS
VL: NFMLTQPHSMSGSAGKTVTVSCIRSSGSIANNFVQWYQQRPGSAPTTVIYEDNQRPSGVPDRFSGSIDSSSNSASLTISGLKTEDEADYYCQSYDSSNLVFGGGTRLTVL
B19: RBD-R3-T1-H3 (Ab_2) (scFv, V domains shown)
VH: EVQLVQSGAEVKKPGSSVKVSCKTSGYTFTTSGISWVRQAPGQGLEWMGWISAYNGNTNYAQKLQGRVTMTTDTSTSTAYMELRSLRSDDTAVYYCARDFHLYYGMDVWGKGTLVTVSS
VL: QSALTQPPSASGSPGQSVTISCTGTSSDVGAYNYVSWYQQHPGKAPKLLIYDVTKRPPGVPDRFSGSKSGNTASLTVSGLQAEDEADYYCAVWDDGLNGRVVFGGGTKLTVL
B20: Ab 23 (scFv, V domains shown)
VH: EVQLVQSGAEVKKPGSSVKVSCRSSGGTFSTYGITWVRQAPGQGLEWMGRIIPSLGIPNYAQKFQGRVTITADTSVSTAWMELSSLESDDTAIYYCARENIDLATNDFWGQGTLVTVSS
VL: QSALTQPPSASGSPGQSVTISCTGTSRDIGAYGYVSWYQQVPGKAPKLIIYEVRNRPSGVSSRFSGSKSGNTASLTISGLQAEDEADYYCSSYTSSSTLDVVFGGGTKLTVL
B21: Ab 21 (scFv, V domains shown)
VH: QVQLVQSGGGLVQPGGSLRLSCATSGFTFDDYAMHWVRQAPGKGLEWVSGISWNSGSIGYVDSVKGRFTISRDNRNNKVYLQMNNLRAEDTAVYYCARDWWGSIDHWGLGTLVTVSS
VL: QSALTQPRSVSGSPGQSVTISCTGTSSDVGGYDYVSWYQQHPGKAPKLIIYDVSKRPSGVPDRFSGSKSGNTASLTVSGLQAEDEADYYCSSYTSSSPVVFGGGTKLTVL
B22: S1-RBD-R3-T1-C7 Ab (Ab 29) (scFv, V domains shown)
VH: QVQLQQSGPGLVKPSQTLSLTCAISGDSVSSYSDAWNWIRQSPSRGLEWLGRTYYRSKWYNDYAVSVKSRITINPDTSKNQFSLQLSSVTPEDTAVYYCAREIVATTPFRNYYYGMDVWGQGTTVTVSS
VL: NFMLTQPHSVSESPGNTVTISCTRTSGSIASNYVQWYQQRPGSSPTTVIFQDKLRPSGVPDRFSGSIDSSSNSASLTISGLKTEDEADYYCQSYDSSSLWVFGGGTKLTVL
B23: S1-R3-T1-C4 (Ab_8) (scFv, V domains shown)
VH: QVQLVQSGAEVKKPGSSVKVSCKASGGTFSSYAISWLRQAPGQGLEWMGWINPNSGGTNYAQKFQGRVTMTRDTSISTAYMELSRLRSDDTAVYYCARGSGGYYLGWGQGTLVTVSS
VL: QPGLTQPPSVSKGLRQTATLTCTGNSNNVGNQGAAWLQQHQGHPPKLLSYMNNNRPPGISERFSASRSGNTASLTITGLQPEDEADYYCSAWDSSLSRWVFGGGTKLSVL

What follows are binders tested against D614G Spike (SARS-CoV-2, UniProt P0DTC2 16-1213).
B1 was tested, and the Kd was 7.53 pM. For B2, the Kd was 8.64 pM. Work on B3 yielded a Kd of 8.87 pM. For B4, the Kd was 9.03 pM. Work on B5 yielded a Kd of 9.93 pM. Binder B6 has a Kd of 8.56 pM. For B7, the Kd was 9.41 pM. With B8 the Kd was 8.1 pM. B9 was tested, and the Kd was 10.9 pM. B10 was tested, and the Kd was 8.35 pM. In the case of B11, the Kd is reported as 7.26 pM. B12 gave a Kd of 8.12 pM. With B13 the Kd was 9.15 pM. For B14, the Kd was 9.97 pM. B15 gave a Kd of 2.74 pM. For B16, the Kd was 7.43 pM. Binder B17 has a Kd of 6.8 pM. Binder B18 has a Kd of 6.33 pM. Binder B19 has a Kd of 167 pM. B20 gave a Kd of 8.82 pM. B21 was tested, and the Kd was 8 pM. In the case of B22, the Kd is reported as 1.04 pM. Work on B23 yielded a Kd of 7.3 pM.
